Target: human serum albumin (HSA) (human) (UniProt P02768)
Assay: HSA-coupled agarose beads, washed with PBS, fluorescence plate reader (ex 480 nm, em 510 nm)

Sequence of UniProt P02768 (P02768 25-609 limits assumed): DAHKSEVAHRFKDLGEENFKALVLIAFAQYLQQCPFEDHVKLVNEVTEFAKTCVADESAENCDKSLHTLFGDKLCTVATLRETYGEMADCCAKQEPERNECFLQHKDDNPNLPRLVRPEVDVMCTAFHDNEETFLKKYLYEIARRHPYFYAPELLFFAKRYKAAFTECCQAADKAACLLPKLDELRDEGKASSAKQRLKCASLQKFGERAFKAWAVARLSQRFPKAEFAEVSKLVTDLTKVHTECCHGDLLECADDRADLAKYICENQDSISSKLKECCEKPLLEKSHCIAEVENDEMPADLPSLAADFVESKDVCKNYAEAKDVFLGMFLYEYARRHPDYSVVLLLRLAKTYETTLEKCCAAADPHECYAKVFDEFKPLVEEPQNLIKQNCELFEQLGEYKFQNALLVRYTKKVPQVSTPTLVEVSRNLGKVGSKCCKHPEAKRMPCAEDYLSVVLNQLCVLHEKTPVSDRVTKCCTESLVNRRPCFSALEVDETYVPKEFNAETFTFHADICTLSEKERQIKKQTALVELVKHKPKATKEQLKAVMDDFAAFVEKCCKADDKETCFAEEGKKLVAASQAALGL

“palmitic acid-conjugated superfolder green fluorescent protein (sfGFP-Pal)” showed a fold fluorescence of HSA-coupled beads against those with sfGFP-WT of 20 fold.

Source: patent publication US20150297680A1
